The record followed here is patent US20250099534A1, “UBIQUITIN HIGH AFFINITY CYCLIC PEPTIDES AND METHODS OF USE THEREOF” (TECHNION RESEARCH & DEVELOPMENT FOUNDATION LIMITED, priority 2022, published 2025).

The target in assay [1] is Lys63-linked Ub chains (on proteins in cells and in U2OS lysate). Briefly: cell-based or functional assay.
Assay [2] has the same target. As to the kind of experiment: cell-based or functional assay. This is another data set of the same source.

Read-outs that look alike come from different tables or passages of the source. Starred links: 1 amine or outer side, 2 acyl side, 3 side chain; linkers in the order of their positions; H or OH if unused. Positions of bridges follow the written chain, without caps; N, C: chain ends. No end group written: not given here. *: point of attachment. mClBz = N-terminal group cyclised as a benzyl thioether to a Cys, O=C(c1cccc(C[*:3])c1)[*:2]; C6F5 = pentafluorophenyl group on the Cys sulfur, Fc1c(F)c(F)c(*)c(F)c1F

In assay [1], mClBz-CLIWIGSSKNPYILCG (bridge N-15; not fully specified (C-terminus, bridges)) [cyclic peptide 2 (CP1-L1C)] yielded an increase in the population of HeLa cells at G2/M phase, flow cytometry, 72 h of 5.2%; an increase in the population of HeLa cells at G2/M phase, flow cytometry, 96 h of 13%; an increase of overall Annexin V positive HeLa cells, 96 h of 14.5%; a relative tail moment, comet assay, U2OS cells of 8 fold. In assay [1], the γ-H2AX level, western blot, HeLa cells came out at 3.5 fold and the γ-H2AX level, western blot, U2OS cells turned out to be 3 fold.
In assay [2], mClBz-C(C6F5)LIWIGSSKNPYILCG (thioether N-15) [cyclic peptide 20, CP1-L1C-C6F5] gave a γ-H2AX level, western blot, HeLa cells of 2.4 fold and a γ-H2AX level, western blot, U2OS cells of 1.8 fold.
